Experiments:
[1] = molecular target: HLA-DR DRB1*0101 (human); assay: competition with 125I-labelled reference peptide on purified HLA-DR
[2] = molecular target: HLA-DR DRB1*1501 (human); assay: as above
[3] = molecular target: HLA-DR DRB1*0401 (human); assay: as above
[4] = molecular target: HLA-DR DRB1*1302 (human); assay: as above
[5] = molecular target: HLA-DR DRB4*0101 (human); assay: as above
[6] = molecular target: HLA-DR DRB1*0101 (human); assay: competition vs 125I-labeled peptide, purified HLA
[7] = molecular target: HLA-DR DRB1*0301 (human); assay: competition vs 125I-labeled peptide, purified HLA
[8] = molecular target: HLA-DR DRB1*1501 (human); assay: competition vs 125I-labeled peptide, purified HLA
[9] = molecular target: HLA-DR DRB1*0401 (human); assay: competition vs 125I-labeled peptide, purified HLA
[10] = molecular target: HLA-DR DRB1*1302 (human); assay: competition vs 125I-labeled peptide, purified HLA
[11] = molecular target: HLA-DR DRB4*0101 (human); assay: competition vs 125I-labeled peptide, purified HLA
[12] = molecular target: purified HLA-DR molecule DRB1*1302 (human); assay: competition with 125I-labelled peptide for purified HLA
[13] = molecular target: purified HLA-DR molecule DRB1*0401 (human); assay: as above
[14] = molecular target: purified HLA-DR molecule DRB1*0404 (human); assay: as above
[15] = molecular target: purified HLA-DR molecule DRB1*0101 (human); assay: as above
[16] = molecular target: purified HLA-DR molecule DRB1*0405 (human); assay: as above
[17] = molecular target: purified HLA-DR molecule DRB1*0301 (human); assay: as above
[18] = molecular target: HLA-DR DRB1*0101 (human); assay: competition with 125I-labeled reference peptide, purified HLA
[19] = molecular target: HLA-DR DRB1*0301 (human); assay: as above
[20] = molecular target: HLA-DR DRB1*0405 (human); assay: as above
[21] = molecular target: HLA-DR DRB1*0401 (human); assay: as above
[22] = molecular target: HLA-DR DRB1*1302 (human); assay: as above
[23] = molecular target: HLA-DR DRB1*0404 (human); assay: as above
[24] = molecular target: purified HLA-DR DRB1*1302 (human); assay: competition with 125I-labelled reference peptide, purified HLA
[25] = molecular target: purified HLA-DR DRB1*0301 (human); assay: as above
[26] = molecular target: purified HLA-DR DRB1*0405 (human); assay: as above
[27] = molecular target: purified HLA-DR DRB1*0101 (human); assay: as above
[28] = molecular target: purified HLA-DR DRB1*0404 (human); assay: as above
[29] = molecular target: purified HLA-DR DRB1*0401 (human); assay: as above

## NGTVKDRSPHRTLMS (modifications not checked) [Flu.NA.126 peptide …]
[1]
  IC50: 581 nM
[2]
  IC50: 267 nM
[3]
  IC50: 17900 nM
[4]
  IC50: 7930 nM
[5]
  IC50: 8880 nM

## NLEYQIGYICSGVFG (modifications not checked) [Flu.NA.289 peptide …]
[1]
  IC50: 1130 nM
[2]
  IC50: 13 nM
[3]
  IC50: 975 nM
[4]
  IC50: 41 nM
[5]
  IC50: 354 nM

## CPKYVKSNRLVLATGL (modifications not checked) [Flu.HA.318]
[6]
  IC50: 2760 nM
[7]
  IC50: 2920 nM
[8]
  IC50: 230 nM
[9]
  IC50: 868 nM
[10]
  IC50: 48 nM
[11]
  IC50: 287 nM

## MVAYMLERELVRKTR (modifications not checked) [… (Flu.PB2.205)]
[12]
  IC50: 2080 nM
[13]
  IC50: 166 nM
[14]
  IC50: 499 nM
[15]
  IC50: 97 nM
[16]
  IC50: 5540 nM
[17]
  IC50: 878 nM

## GGEVRNDDVDQSLII (modifications not checked) [… (Flu.PB2.250)]
[12]
  IC50: 2500 nM
[13]
  IC50: 2160 nM
[14]
  IC50: 458 nM
[17]
  IC50: 347 nM

## EALMEWLKTRPILSP (modifications not checked) [Flu.M1.43]
[6]
  IC50: 9.5 nM
[8]
  IC50: 18 nM
[9]
  IC50: 891 nM
[10]
  IC50: 380 nM
[11]
  IC50: 5510 nM

## QRGILEDEQMYQKCC (modifications not checked) [… (Flu.PB1.682)]
[12]
  IC50: 10900 nM
[13]
  IC50: 2560 nM
[14]
  IC50: 3270 nM
[15]
  IC50: 433 nM
[16]
  IC50: 700 nM
[17]
  IC50: 34 nM

## LLVLMENERTLDFHD (modifications not checked) [Flu.HA.444]
[7]
  IC50: 64 nM

## VAVLKYNGIITDTIKSW (modifications not checked) [Flu.NA.183 peptide …]
[1]
  IC50: 3390 nM
[2]
  IC50: 19 nM
[3]
  IC50: 319 nM
[4]
  IC50: 169 nM
[5]
  IC50: 289 nM

## ILSIYSTVASSLALAI (modifications not checked) [Flu.HA.532]
[6]
  IC50: 11 nM
[8]
  IC50: 20 nM
[9]
  IC50: 91 nM
[10]
  IC50: 7.6 nM
[11]
  IC50: 824 nM

## SIWIELDEIGEDVAP (modifications not checked) [Flu.PA.423]
[18]
  IC50: 13400 nM
[19]
  IC50: 59 nM
[20]
  IC50: > 10000 nM
[21]
  IC50: 5400 nM
[22]
  IC50: > 10000 nM

## KYPITADKRIMEMIP (modifications not checked) [… (Flu.PB2.57)]
[12]
  IC50: 68 nM
[13]
  IC50: 9390 nM
[14]
  IC50: 2290 nM
[17]
  IC50: 48 nM

## LKQYDSDEPELRSLS (modifications not checked) [Flu.PA.393]
[18]
  IC50: 17700 nM
[23]
  IC50: 5800 nM
[19]
  IC50: 88 nM
[20]
  IC50: > 10000 nM
[21]
  IC50: 7260 nM
[22]
  IC50: > 10000 nM

## QLLLEVEQEIRTFSF (modifications not checked) [Flu.NS2.180]
[18]
  IC50: 11900 nM
[23]
  IC50: 1600 nM
[19]
  IC50: 792 nM
[20]
  IC50: 5140 nM
[21]
  IC50: 13900 nM
[22]
  IC50: 13200 nM

## RVVVSIDRFLRVRDQ (modifications not checked) [Flu.PB2.496]
[24]
  IC50: 8.1 nM
[25]
  IC50: 67 nM
[26]
  IC50: 2050 nM
[27]
  IC50: 1860 nM
[28]
  IC50: 400 nM
[29]
  IC50: 111 nM

## IGNMISIWVSHSIHTG (modifications not checked) [Flu.NA.26 peptide …]
[1]
  IC50: 1050 nM
[2]
  IC50: 81 nM
[3]
  IC50: 925 nM
[4]
  IC50: 5950 nM
[5]
  IC50: 817 nM

## FNPMIVELAEKTMKE (modifications not checked) [Flu.PA.12]
[18]
  IC50: 48 nM
[23]
  IC50: 610 nM
[19]
  IC50: 744 nM
[20]
  IC50: 1240 nM
[21]
  IC50: 29 nM
[22]
  IC50: 1250 nM

## AMVFSQEDCMIKAVR (modifications not checked) [Flu.PB2.404]
[24]
  IC50: 9200 nM
[25]
  IC50: 718 nM
[26]
  IC50: 6780 nM
[27]
  IC50: 11000 nM
[28]
  IC50: 336 nM
[29]
  IC50: 3280 nM

## FLILGKEDRRYGPAL (modifications not checked) [Flu.PB2.697]
[24]
  IC50: 118 nM
[25]
  IC50: 565 nM
[27]
  IC50: 8390 nM
[29]
  IC50: 1740 nM

## LRNLMSQSRTREILT (modifications not checked) [LRNLMS1SRTREILT (Flu.PB2.10)]
[12]
  IC50: 5.4 nM
[13]
  IC50: 4970 nM
[14]
  IC50: 170 nM
[15]
  IC50: 613 nM
[16]
  IC50: 9690 nM
[17]
  IC50: 978 nM

## RGILEDEQMYQKCCN (modifications not checked) [… (Flu.PB1.683)]
[12]
  IC50: 18000 nM
[13]
  IC50: 5740 nM
[14]
  IC50: 10500 nM
[15]
  IC50: 199 nM
[16]
  IC50: 3280 nM
[17]
  IC50: 43 nM

## ALQLLFEVEQEIRTF (modifications not checked) [Flu.NS2.178]
[18]
  IC50: 3490 nM
[23]
  IC50: 2150 nM
[19]
  IC50: 403 nM
[20]
  IC50: 8870 nM
[21]
  IC50: 10300 nM
[22]
  IC50: > 10000 nM

## PTTYISVGTSTLNQRL (modifications not checked) [Flu.HA.210]
[6]
  IC50: 190 nM
[8]
  IC50: 1720 nM
[9]
  IC50: 59 nM
[10]
  IC50: 957 nM
[11]
  IC50: 522 nM

## MEWLKTRPILSPLTK (modifications not checked) [Flu.M1.46]
[6]
  IC50: 52 nM
[8]
  IC50: 111 nM
[9]
  IC50: 528 nM
[10]
  IC50: 3880 nM
[11]
  IC50: 7940 nM

## PVHFRNQVKIRRRVD (modifications not checked) [… (Flu.PB2.135)]
[12]
  IC50: 359 nM
[13]
  IC50: 1300 nM
[14]
  IC50: 5980 nM
[15]
  IC50: 2970 nM
[16]
  IC50: 6040 nM
[17]
  IC50: 458 nM

## VVWLIKKNSTYPTIKR (modifications not checked) [Flu.HA.163]
[6]
  IC50: 464 nM
[8]
  IC50: 99 nM
[9]
  IC50: 289 nM
[10]
  IC50: 14 nM
[11]
  IC50: 1660 nM

## RTFFLTQGALLNDKHS (modifications not checked) [Flu.NA.110 peptide …]
[1]
  IC50: 16 nM
[2]
  IC50: 790 nM
[3]
  IC50: 251 nM
[4]
  IC50: 3200 nM
[5]
  IC50: 2320 nM

## IYQILSIYSTVASSLA (modifications not checked) [Flu.HA.529]
[6]
  IC50: 55 nM
[8]
  IC50: 4.7 nM
[9]
  IC50: 89 nM
[10]
  IC50: 13 nM
[11]
  IC50: 18 nM

## RNYFTAEVSHCRATE (modifications not checked) [Flu.PA.446]
[18]
  IC50: 627 nM
[23]
  IC50: 7600 nM
[19]
  IC50: 883 nM
[20]
  IC50: 5720 nM
[21]
  IC50: 45 nM
[22]
  IC50: > 10000 nM

## TRPILSPLTKGILGF (modifications not checked) [Flu.M1.51]
[6]
  IC50: 423 nM
[8]
  IC50: 140 nM
[10]
  IC50: 292 nM
[11]
  IC50: 192 nM

## VSKMGVDEYSSTERV (modifications not checked) [Flu.PB2.483]
[24]
  IC50: 1850 nM
[25]
  IC50: 1020 nM
